# T1: PhyB(1-651)-AviTag-His6, biotinylated photosensory domain of A. thaliana phytochrome B (A. thaliana, UniProt P14713 1-651, biotin on the AviTag motif (~80% biotinylation); chromophore phycocyanobilin (PCB))
# T1 construct: photosensory domain of phytochrome B (PhyB), A. thaliana, amino acids 1-651; Expected mass 74 kDa; also called PhyB-AviTag; source: E. coli BL21 Star (DE3), plasmid pMH1105 with HO1 and PcyA, purified (Ni-NTA IMAC, desalting); not shown: AviTag, C-terminal, kept
# T1 sequence (looked up): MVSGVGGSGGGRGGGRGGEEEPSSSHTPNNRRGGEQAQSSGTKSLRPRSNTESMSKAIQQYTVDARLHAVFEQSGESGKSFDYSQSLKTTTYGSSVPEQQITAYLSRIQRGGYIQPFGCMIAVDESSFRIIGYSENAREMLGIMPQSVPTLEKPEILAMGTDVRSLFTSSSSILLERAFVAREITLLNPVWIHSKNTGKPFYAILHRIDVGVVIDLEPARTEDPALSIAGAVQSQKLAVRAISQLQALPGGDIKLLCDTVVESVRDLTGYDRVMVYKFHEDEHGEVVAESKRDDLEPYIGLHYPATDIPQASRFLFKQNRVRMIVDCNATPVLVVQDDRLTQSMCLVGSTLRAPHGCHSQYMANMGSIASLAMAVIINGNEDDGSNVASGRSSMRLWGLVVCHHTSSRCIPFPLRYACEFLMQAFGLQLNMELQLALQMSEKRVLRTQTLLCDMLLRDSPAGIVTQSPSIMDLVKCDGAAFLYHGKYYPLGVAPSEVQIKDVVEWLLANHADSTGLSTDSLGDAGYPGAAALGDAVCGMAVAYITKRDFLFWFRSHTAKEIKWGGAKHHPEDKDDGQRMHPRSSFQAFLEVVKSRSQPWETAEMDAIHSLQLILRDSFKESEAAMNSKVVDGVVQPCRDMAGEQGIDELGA
# Target: T1, PhyB(1-651)-AviTag-His6, biotinylated …
# Test: SEC; equimolar mixture of PhyB-AviTag (2.2 mg/ml) and GFP-PIF6 (1.2 mg/ml) in protein buffer (PBS, 0.5 mM TCEP), illuminated 3 min with 660 nm light (100 µmol/(m^2·s)), Superdex 200 Increase 10/300 GL run in the dark, 1 ml/min, absorbance at 280, 488 and 671 nm; never frozen and frozen-thawed proteins; compared with 740 nm illumination
# Conditions: both partners purified
binder,measurement,value
"GFP-PIF6(1-100)-His6 (domain or fragment, A. thaliana, UniProt Q8L5W7 1-100, looked up, Expected mass 40 kDa; source: E. coli BL21 (DE3)pLysS, plasmid pHB111, purified as described for PhyB-AviTag (Ni-NTA IMAC, desalting); not shown: GFP, N-terminal, kept) MMFLPTDYCCRLSDQEYMELVFENGQILAKGQRSNVSLHNQRTKSIMDLYEAEYNEDFMKSIIHGGGGAITNLGDTQVVPQSHVAAAHETNMLESNKHVD",binding result,binds
